Measured values as given in IntAct's records for PubMed 24794838.

B1: PIH1 domain-containing protein 1 (Mus musculus), Q9CQJ2 (parent)
chain: MADSTFLAPELSDTESMGEETVRFQELLLKASKELQQAQTARPDSTQIQPKPGFCVKTNSSEGKVFINICHSPSIPPPADVTEDELLQMLEEDQAGFRIPMSLGEPHAELDAKGQGCTAYDVAVNSNFYLRMQNSDFLRELVVTIAREGLEDKYGLQLNPEWRMLKYRSFLGSISQQNIRSQQRPRIQELGTLDASGSLGTCHGPERPHLNLWLEAPDLLLAEVDLPKLDGAQGLALEIGENRLVIGGPQQLYHLDATVPLRINSEASRAAFHRRRKQLMVSMPLLTASS

Variants of: B1
Details: with telo2_mouse Telo2, Q9DC40
Chain of telo2_mouse Telo2, Q9DC40 (Q9DC40 whole entry): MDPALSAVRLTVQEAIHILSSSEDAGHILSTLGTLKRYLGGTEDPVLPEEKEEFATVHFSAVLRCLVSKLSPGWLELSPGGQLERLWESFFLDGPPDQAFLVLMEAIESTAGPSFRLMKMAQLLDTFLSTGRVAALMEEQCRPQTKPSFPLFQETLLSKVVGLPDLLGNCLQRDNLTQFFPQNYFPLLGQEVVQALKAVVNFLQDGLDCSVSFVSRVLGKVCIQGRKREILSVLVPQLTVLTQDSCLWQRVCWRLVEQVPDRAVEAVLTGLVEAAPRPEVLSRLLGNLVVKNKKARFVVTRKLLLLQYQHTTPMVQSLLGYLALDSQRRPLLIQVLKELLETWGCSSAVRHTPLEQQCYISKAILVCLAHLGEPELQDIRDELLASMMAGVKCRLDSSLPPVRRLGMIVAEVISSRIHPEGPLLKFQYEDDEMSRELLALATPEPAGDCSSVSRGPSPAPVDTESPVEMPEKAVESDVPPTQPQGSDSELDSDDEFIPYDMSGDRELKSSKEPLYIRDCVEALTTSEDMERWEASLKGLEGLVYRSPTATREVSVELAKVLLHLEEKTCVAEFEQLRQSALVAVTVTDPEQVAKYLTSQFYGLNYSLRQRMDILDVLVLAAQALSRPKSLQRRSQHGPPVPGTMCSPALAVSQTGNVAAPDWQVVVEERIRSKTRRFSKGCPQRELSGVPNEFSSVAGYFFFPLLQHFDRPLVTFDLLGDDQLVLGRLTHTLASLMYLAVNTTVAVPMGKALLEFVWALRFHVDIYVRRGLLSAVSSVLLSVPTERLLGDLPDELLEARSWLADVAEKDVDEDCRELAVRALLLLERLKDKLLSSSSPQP

Variant	effect of a mutation on the interaction
MADSTFLAPELSDTESMGEETVRFQELLLKASKELQQAQTARPDSTQIQPKPGFCVETNSSEGKVFINICHSPSIPPPADVTEDELLQMLEEDQAGFRIPMSLGEPHAELDAKGQGCTAYDVAVNSNFYLRMQNSDFLRELVVTIAREGLEDKYGLQLNPEWRMLKYRSFLGSISQQNIRSQQRPRIQELGTLDASGSLGTCHGPERPHLNLWLEAPDLLLAEVDLPKLDGAQGLALEIGENRLVIGGPQQLYHLDATVPLRINSEASRAAFHRRRKQLMVSMPLLTASS [K57E]	disrupting interaction strength
MADSTFLAPELSDTESMGEETVRFQELLLKASKELQQAQTARPDSTQIQPKPGFCVKTNSSEGEVFINICHSPSIPPPADVTEDELLQMLEEDQAGFRIPMSLGEPHAELDAKGQGCTAYDVAVNSNFYLRMQNSDFLRELVVTIAREGLEDKYGLQLNPEWRMLKYRSFLGSISQQNIRSQQRPRIQELGTLDASGSLGTCHGPERPHLNLWLEAPDLLLAEVDLPKLDGAQGLALEIGENRLVIGGPQQLYHLDATVPLRINSEASRAAFHRRRKQLMVSMPLLTASS [K64E]	disrupting interaction strength
